These results are taken from US20160244740A1, “MUTANT CHON[…] I COMPOSITIONS AND METHODS OF THEIR USE” (OHIO STATE INNOVATION FOUNDATION, priority 2013, published 2016).

Like-named read-outs stand apart in the source and are kept apart here.

The test system of data set [1] is subcutaneous tumors. The settings on record: with adenovirus; cited from earlier work.
For data set [2] the following is noted: in vivo; cited from earlier work.
The conditions of data set [3]: cited from earlier work; for toxicity/hemorrhages/glial reactivity: repeated injections into brains and spinal cords.
For data set [4], the system named is glioma cells. Briefly: Effect of Chase ABC treatment of glioma cells in vitro on oHSV infection/replication. The data set is classed as cell-based. An excerpt: The tumor's extracellular matrix (ECM) can pose a significant barrier for efficient viral spread, thus limiting virotherapy efficacy. Chondroitin sulfate proteoglycans (CSPG) are one of the major components of glioma ECM. Choindroitinase ABC 1 (Chase ABC) is a bacterial enzyme that can depolymerize this ECM scaffold. Chase ABC mediated digestion of glioma CSPG can enhance oHSV dissemination and efficacy. […] This study examines the mechanism and impact of Chase ABC on oncolysis. Reduced virus replication can contribute to limited oncolytic efficacy of oHSV. Several innovative approaches are currently under investigation including transcriptional retargeting of viruses to drive virulence under the control of tumor-specific promoters. rQNestin34.5 is an oHSV that expresses viral ICP34.5 regulated by glioma-specific nestin promoter in an ICP34.5 deleted viral backbone. […] An oHSV expressing the humanized sequence of Chase ABC within the context of rQNestin34.5 can be used. […] The anti-tumor efficacy of the Chase ABC-expressing oHSV in vitro and in vivo, in glioma can be tested. The impact of the Chase ABC-expressing oHSV on tumor immune cell infiltration and responses can also be tested.

Data set [5] relates to U87ΔEGFR human glioma spheroids. Briefly: oHSV spread in organotypic glioma model in presence/absence of Chase ABC. The data set is classed as cell-based. As to conditions: 10^4 pfus of rQNestin34.5, presence vs absence of purified Chase ABC, n=3/group. The protocol:
Briefly U87delta EGFR glioma cell line spheroids on Organotypic brain slice cultures were treated with or without purified Chase and then infected with OV. […] Gli36ΔEGFR mice were inoculated with 1×10^6 viral particles on six days (shown by arrows), and percent survival (FIG. 15A) and tumor volume were followed over the course of the study. U87ΔEGFR mice were also inoculated with 1×10^6 viral particles on six days (shown by arrows), and percent survival (FIG. 15B) and tumor volume were followed over the course of the study. U87ΔEGFR mice were also inoculated with 3×10^5 viral particles once ten days after cell implantation (shown by arrow), and percent survival (FIG. 15C) was followed over the course of the study.
As a preliminary result, the effect of Chase ABC treatment on spread by the rQNestin34.5 oHSV was tested in an organotypic glioma model. Briefly, U87ΔEGFR human glioma spheroids (made by the hanging drop method), grown on 300-μm organotypic brain slices from 5-7-day-old mice, were infected with 10^4 pfus of rQNestin34.5, in the presence/absence of Chase ABC. Spread of oHSV in the spheres was visualized by fluorescent imaging of oHSV encoded GFP in infected cells (n=3/group).

For hyaluronidase, in data set [1], the “viral spread and therapeutic efficacy” value was “increased viral spread and therapeutic efficacy”.
collagenase: in data set [2], the intratumoral hemorrhages result is “intratumoral hemorrhages occurred in many tumors”.

B1: Chase ABC: bacterial enzyme, chondroitin-sulfate-ABC endolyase; bacterially produced and purified (Seikagaku Inc) (protein, UniProt P59807 25-1021, looked up)
Chondroitin sulfate ABC …: ATSNPAFDPKNLMQSEIYHFAQNNPLADFSSDKNSILTLSDKRSIMGNQSLLWKWKGGSSFTLHKKLIVPTDKEASKAWGRSSTPVFSFWLYNEKPIDGYLTIDFGEKLISTSEAQAGFKVKLDFTGWRAVGVSLNNDLENREMTLNATNTSSDGTQDSIGRSLGAKVDSIRFKAPSNVSQGEIYIDRIMFSVDDARYQWSDYQVKTRLSEPEIQFHNVKPQLPVTPENLAAIDLIRQRLINEFVGGEKETNLALEENISKLKSDFDALNIHTLANGGTQGRHLITDKQIIIYQPENLNSQDKQLFDNYVILGNYTTLMFNISRAYVLEKDPTQKAQLKQMYLLMTKHLLDQGFVKGSALVTTHHWGYSSRWWYISTLLMSDALKEANLQTQVYDSLLWYSREFKSSFDMKVSADSSDLDYFNTLSRQHLALLLLEPDDQKRINLVNTFSHYITGALTQVPPGGKDGLRPDGTAWRHEGNYPGYSFPAFKNASQLIYLLRDTPFSVGESGWNNLKKAMVSAWIYSNPEVGLPLAGRHPFNSPSLKSVAQGYYWLAMSAKSSPDKTLASIYLAISDKTQNESTAIFGETITPASLPQGFYAFNGGAFGIHRWQDKMVTLKAYNTNVWSSEIYNKDNRYGRYQSHGVAQIVSNGSQLSQGYQQEGWDWNRMQGATTIHLPLKDLDSPKPHTLMQRGERGFSGTSSLEGQYGMMAFDLIYPANLERFDPNFTAKKSVLAADNHLIFIGSNINSSDKNKNVETTLFQHAITPTLNTLWINGQKIENMPYQTTLQQGDWLIDSNGNGYLITQAEKVNVSRQHQVSAENKNRQPTEGNFSSAWIDHSTRPKDASYEYMVFLDATPEKMGEMAQKFRENNGLYQVLRKDKDVHIILDKLSNVTGYAFYQPASIEDKWIKKVNKPAIVMTHRQKDTLIVSAVTPDLNMTRQKAATPVTINVTINGKWQSADKNSEVKYQVSGDNTELTFTSYFGIPQEIKLSPLP
Regarding B1, the “loss of neurons, alterations of their structure, reactions of glial cells” value in data set [3] (intracerebral injections, immediately or after five months of treatment) was “did not reveal loss of neurons or alterations of their structure nor reactions of glial cells”. Besides, the toxicity/hemorrhages/glial reactivity result in data set [3] is “have not been associated with deleterious effects”; in data set [3] (listed as purified Chase ABC) it was “absence of toxicity/hemorrhages/glial reactivity”. The oHSV infection/replication result in data set [4] is on record as “does not negatively affect oHSV infection/replication”. Also, the “oHSV spread in spheres (GFP imaging)” value in data set [5] is recorded as “increase in viral spread”; in data set [5] (listed as purified Chase ABC), “increased oHSV spread within all three glioma spheroids”.
